We go through one molecule from patent publication CN111662379A.

In assay [1] the target is T1, 重组SARS-CoV-2刺突蛋白胞外区 (extra cellular domain of spike protein, S-ECD) (SARS-CoV-2), P0DTC2. Nature of the assay: indirect ELISA, S-ECD coated at 1μg/ml. The note with it: remark: other sources report otherwise. In general terms: An ELISA detects its analyte on a solid surface through an enzyme-linked reagent.
Assay [2] deals with T1, 重组SARS-CoV-2刺突蛋白胞外区 (extra cellular …). Nature of the assay: SPR, Biacore 8K, S-ECD immobilised on a CM5 chip, antibody injected at 125nM~7.8nM. The note with it: remark: other sources report otherwise. (In SPR one partner is held on a chip, and binding of the other changes the refractive index at the surface.)

B1: FC05 (antibody)
chain 1: EVQLLEQSGAEVKKPGASVRVSCKVSGYTLPEVAMHWVRQAPGKGLEWMGGFDPEDGETIYAQKFQGRVTMTEDTSTDTAYMELSSLRSEDTAVYYCATTTPFSSSFWFDPWGQGTLVTVSS
chain 2: QSVLTQAPSVSGAPGQKVTISCSGSSSNIGNNYVSWYQQLPGTAPKLLIYDNNKRPSGIPDRFSGSKSGTSATLGITGLQTGDEADYYCGTWDSSLSAVVFGGGTKLTVL
In assay [1], B1 had a 抗体滴度 (dilution 1:x from 1mg/mL) of 320000. In addition, the Kd in assay [2] was 0.1 nM.

The term Kd denotes the free concentration of one partner at which half of the binding sites on the other are occupied at equilibrium, for simple one-to-one binding. Low readings indicate higher affinity, high ones lower affinity.
